Reference: patent publication US12565520B2, “Chemically-stabilized allosteric modulators of leucine-rich repeat kinase 2 (LRRK2)” (UNIVERSITY OF GEORGIA RESEARCH FOUNDATION, INC., priority 2020, dated 2026)
Entries after “also recorded” stand apart in the source; their conditions may differ.

Legend:
GFP-tagged LRRK2 [1] = molecular target: T1, GFP-tagged LRRK2 (Homo sapiens, UniProt Q5S007); experiment: Pulldown of LRRK2 from cell lysate with biotin-labeled peptides; format: binding; conditions: 10 μM biotin-labeled peptide, lysate of HEK293 cells overexpressing GFP-tagged LRRK2
T1 construct: co-transfecting HEK293 cells with GFP-tagged and strep-tagged full-length LRRK2; expressed in transfected cells; host or cells: HEK293
Experimental: Pulldown experiments. Fresh lysate of HEK293 cells overexpressing GFP-tagged LRRK2 was mixed and incubated with biotin-labeled peptide (added to a final concentration of 10 μM) and incubated at 4° C. overnight. The mixture was then applied to Magnetic Strep-beads (MagStrep ‘Type3’ XT Beads (IBA, Gottingen, Germany)) and the immune complex was washed twice (10 mM Tris/HCl pH 7.5, 150 mM NaCl) and subjected to immunoblot analysis. Samples were separated on 6% Tris-Glycine gels, transferred onto a nitrocellulose membrane (GE Lifesciences), and processed for western analysis. Membranes were blocked in 5% dry milk in Tris-buffered saline plus Tween-20 for 1 hour and probed with rat monoclonal anti-LRRK2 (clone 24D8 1:1000, Gloeckner lab(69)) and incubated overnight at 4° C. with gentle shaking. Membranes were then washed three times for 10 min at room temperature in PBS containing 0.1% or 0.05% Tween-20 and then incubated for 1 hour with anti-rat IgG-HRP (sc-2750, Santa Cruz Biotechnology). Membranes were again washed three times for 10 min at room temperature in PBS containing 0.1% or 0.05 Tween-20. The membranes were coated with enhanced chemiluminescent (ECL) reagent (WesternSure PREMIUM, Li-COR biosciences), and proteins were detected using the C-Digit Imaging System (Li-COR Biosciences). […]

GFP-tagged LRRK2 [2] = molecular target: T1, GFP-tagged LRRK2; experiment: Localization of GFP-tagged LRRK2 by confocal microscopy; format: cell-based; conditions: HEK293 cells, 10 μM peptide, 12 h
Source text: Next, we analyzed the effects of these inhibitor peptides on LRRK2 localization.

RAW 264.7 cells = experiment: ROS production assay (CellROX, zymosan); format: cell-based; conditions: 10 μM peptide 9 hours, then Zymosan 50 μg/mL 30 mins
Experimental: ROS production assay. Flow cytometry was used to measure reactive oxygen species (ROS) through fluorescence emission of the CellROX deep red dye (Life Technologies). RAW264.7 cells (ATCC® SC-6003™) were plated at 120,000/well in a 96-well low-adherence tissue culture plate (Costar).

[3] = system: LRRK2 (R1441G) kinase activity as Rab10 phosphorylation; experiment: Rab10 pT73 phosphorylation immunoblot, HEK293T with LRRK2 R1441G and Rab29; format: cell-based; conditions: LRRK2 R1441G + Rab29, 10 μM peptide, 12 h / 15 hours
Experimental: Rab10 Immunoblotting. HEK293T cells were co-transfected at a confluency of 50-60% with Strep-FLAG tagged LRRK2 R1441G and Rab29 as well as Rab10 (both HA-FLAG tagged) using polyethylenimine (PEI, Polyscience) as previously described(46). […] […], cells were lysed in twice, first in lysis buffer (30 mM Tris-HCL (pH7.4), 150 mM NaCl, 0.5% NP-40, complete protease Inhibitor cocktail and phosphatase inhibitor cocktail II & III (Sigma Aldrich) and again after centrifugation in 1% SDS. Cleared lysates were adjusted to 2 μg/μl with 5× Laemmli Buffer and lysis buffer. Samples were used for denaturating electrophoresis using 10% Bis-Tris gels (NuPAGE) and for western blotting onto PVDF membranes. Membranes were blocked with 5% non-fat dry milk dissolved in TBS-T (30 mM Tris-HCL (pH 7.4), 0.1% Tween 20) and separated horizontally at 140 kDa. Primary antibodies were added TBS-T with 5% BSA (pT73 Rab10) 1:2,000 (ab230261) and pS1292 LRRK2 1:2,000 (ab203181)) or total protein antibodies (Rab10(ERP13424) 1:5,000 (ab181367) or LRRK2 (clone 24D8) 1:5,000 (Gloeckner lab)), respectively. Membranes were incubated with HRP-conjugated secondary antibodies diluted in TBS-T with 5% milk prior to imaging using ECL Plus (Pierce) with exposure to photometric films (Hyperfilms, GE Healthcare). […]

[4] = system: primary cortical neurons overexpressing G2019S-LRRK2; experiment: Neuronal apoptosis in primary cortical neurons expressing G2019S-LRRK2; format: cell-based, mouse; conditions: 10 μM peptide, 48 h
Source text: Preparation of primary mouse neuronal cultures, and assessment of neuronal death. Embryonic day 16 (E16) pregnant C57BL mice were used in this study, with primary cortical neurons prepared as described (N. Antoniou et al., A motif within the armadillo repeat of Parkinson's-linked LRRK2 interacts with FADD to hijack the extrinsic death pathway. Sci Rep 8, 3455 (2018)). Briefly, under aseptic conditions, cortices were removed and cut into small pieces before enzymatic digestion (trypsin 0.05% and 100 μg/ml DNAse) and mechanical dissociation. Cells were centrifuged and counted and plated at a density of 150,000/cm^2 in BrainPhys neuronal culture medium (StemCell Technologies) supplemented with SM1 Neuronal Supplement (StemCell Technologies), L-glutamine (0.5 mM) and penicillin/[…]. After 3-4 DIV, neurons were transfected using Lipofectamine 2000 (Thermo Scientific) as per the manufacturer's instructions. Neurons were transfected with Flag-tagged WT or mutant (G2019S) human LRRK2 (as described previously). The following day, the treatment of neurons with fluorescently labeled peptides (at 10 μM final concentration) was initiated. The peptides were replenished in the neuronal medium after 24 hours, and the indicated concentrations. […] For quantification of apoptotic neuronal profiles, the approach described previously was used.

T1 sequence (Q5S007 whole entry): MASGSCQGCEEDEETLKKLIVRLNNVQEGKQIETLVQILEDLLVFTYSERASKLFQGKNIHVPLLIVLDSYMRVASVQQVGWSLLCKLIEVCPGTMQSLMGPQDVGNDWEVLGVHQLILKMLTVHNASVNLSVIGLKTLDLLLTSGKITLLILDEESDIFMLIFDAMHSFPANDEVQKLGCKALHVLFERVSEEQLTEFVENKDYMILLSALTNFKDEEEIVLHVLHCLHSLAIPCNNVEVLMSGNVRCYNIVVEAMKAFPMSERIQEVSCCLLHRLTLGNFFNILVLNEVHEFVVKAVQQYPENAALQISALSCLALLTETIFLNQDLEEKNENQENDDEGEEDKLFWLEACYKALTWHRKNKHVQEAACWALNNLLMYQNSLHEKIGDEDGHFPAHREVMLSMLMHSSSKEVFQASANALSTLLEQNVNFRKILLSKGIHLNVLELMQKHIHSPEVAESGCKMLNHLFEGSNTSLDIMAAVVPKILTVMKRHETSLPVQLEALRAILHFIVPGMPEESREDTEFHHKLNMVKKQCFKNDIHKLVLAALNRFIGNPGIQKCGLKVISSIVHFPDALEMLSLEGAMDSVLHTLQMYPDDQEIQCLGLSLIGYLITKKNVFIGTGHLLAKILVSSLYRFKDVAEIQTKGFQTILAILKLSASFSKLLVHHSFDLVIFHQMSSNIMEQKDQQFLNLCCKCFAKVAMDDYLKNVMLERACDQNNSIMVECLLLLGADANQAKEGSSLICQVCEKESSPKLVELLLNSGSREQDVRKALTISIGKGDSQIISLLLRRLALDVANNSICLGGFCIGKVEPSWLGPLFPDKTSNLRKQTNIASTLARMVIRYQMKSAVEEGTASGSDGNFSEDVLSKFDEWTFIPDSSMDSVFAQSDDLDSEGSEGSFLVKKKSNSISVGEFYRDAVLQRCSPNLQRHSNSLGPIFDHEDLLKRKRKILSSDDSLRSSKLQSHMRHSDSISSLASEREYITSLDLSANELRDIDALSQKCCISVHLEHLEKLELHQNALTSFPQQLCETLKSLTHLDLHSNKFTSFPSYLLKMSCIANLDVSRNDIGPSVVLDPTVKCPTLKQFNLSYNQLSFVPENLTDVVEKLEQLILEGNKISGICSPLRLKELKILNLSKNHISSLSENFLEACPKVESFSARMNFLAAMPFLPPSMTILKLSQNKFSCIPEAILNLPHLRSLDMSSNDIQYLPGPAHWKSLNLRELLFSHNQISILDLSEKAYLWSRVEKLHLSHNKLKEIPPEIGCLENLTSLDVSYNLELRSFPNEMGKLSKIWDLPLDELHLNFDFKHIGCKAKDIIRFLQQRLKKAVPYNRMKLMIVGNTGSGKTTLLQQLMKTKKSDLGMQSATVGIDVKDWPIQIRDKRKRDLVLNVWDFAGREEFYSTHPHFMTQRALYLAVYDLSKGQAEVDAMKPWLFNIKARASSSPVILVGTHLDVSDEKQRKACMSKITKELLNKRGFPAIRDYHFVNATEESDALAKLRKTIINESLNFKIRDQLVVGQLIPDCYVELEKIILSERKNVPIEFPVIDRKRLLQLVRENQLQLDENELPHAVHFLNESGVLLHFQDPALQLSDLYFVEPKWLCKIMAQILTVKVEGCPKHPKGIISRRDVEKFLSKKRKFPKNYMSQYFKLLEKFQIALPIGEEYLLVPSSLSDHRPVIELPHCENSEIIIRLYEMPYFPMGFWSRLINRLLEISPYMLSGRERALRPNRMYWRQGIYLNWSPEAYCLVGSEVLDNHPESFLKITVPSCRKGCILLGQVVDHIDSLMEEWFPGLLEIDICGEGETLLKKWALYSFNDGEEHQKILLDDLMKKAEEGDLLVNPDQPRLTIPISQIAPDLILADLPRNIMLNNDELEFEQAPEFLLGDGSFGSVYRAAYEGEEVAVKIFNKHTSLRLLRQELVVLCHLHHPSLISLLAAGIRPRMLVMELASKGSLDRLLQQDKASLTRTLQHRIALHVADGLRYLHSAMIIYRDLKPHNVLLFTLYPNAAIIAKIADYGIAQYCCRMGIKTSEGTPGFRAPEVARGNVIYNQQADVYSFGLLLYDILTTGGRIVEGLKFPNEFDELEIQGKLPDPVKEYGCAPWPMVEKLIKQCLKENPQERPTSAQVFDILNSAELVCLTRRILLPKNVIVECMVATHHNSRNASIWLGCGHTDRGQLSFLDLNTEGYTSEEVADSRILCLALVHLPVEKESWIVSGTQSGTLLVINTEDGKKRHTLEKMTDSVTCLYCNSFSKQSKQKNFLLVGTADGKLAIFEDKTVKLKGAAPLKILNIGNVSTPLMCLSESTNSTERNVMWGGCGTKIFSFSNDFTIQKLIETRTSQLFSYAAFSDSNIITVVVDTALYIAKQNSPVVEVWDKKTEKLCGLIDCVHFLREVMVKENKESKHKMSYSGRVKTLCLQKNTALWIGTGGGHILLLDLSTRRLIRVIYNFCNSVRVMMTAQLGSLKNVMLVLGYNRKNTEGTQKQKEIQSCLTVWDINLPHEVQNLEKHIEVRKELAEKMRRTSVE
Experimental for HEK293 cells: Flow Cytometry. HEK293 cells were plated in 96-well plates (50 000/well) and allowed to grow 24 h in complete growth medium (DMEM supplemented with 10% fetal bovine serum, L-glutamine). DMEM was carefully aspirated and cells were treated with fresh pre-warmed complete growth medium supplemented with 10 μM of peptide or DMSO. After 6 hours, cells were analyzed on Beckman Cytoflex flow cytometer (Beckman Coulter). Using forward and side scattered light, a gate for intact, non-aggregated cells was defined and the fluorescence of 10,000 events was collected within this cell gate. The fluorescent channel for FITC (488-nm excitation [ex], 525-nm emission [em]) was used. Data was analyzed using FlowJo software and the reported fluorescent intensity values represent arithmetic means of the results determined for the analyzed cells.

Row | Substance | dose dependence of cell uptake by flow cytometry (HEK293 cells) | LRRK2 pulled down by biotin-labeled peptide (immunoblot) (GFP-tagged LRRK2 [1]) | LRRK2 localization after peptide treatment (GFP-tagged LRRK2 [2]) | zymosan induced ROS production (RAW 264.7 cells) | Rab10 phosphorylation (pT73) [3] | neurons undergoing apoptosis [4]
1 | COR-domain stapled peptide formed from SEQ ID NO. 16 KGEGEXLLKXWK, X = (S)-2-(4′-pentenyl)alanine; PEG3 linker, FAM or biotin label (hydrocarbon staple; PEG3 linker; FAM or biotin; COR domain peptide; (6)..(6) Xaa is (S)-2-(4′-pentenyl)alanine; (10)..(10) Xaa is (S)-2-(4′-pentenyl)alanine) [LCIP1] | dose-dependent uptake | successfully bound to LRRK2; also recorded: both peptides bound LRRK2 | LRRK2 maintained its cytoplasmic distribution; also recorded: did not induce mislocalization of LRRK2 | no statistically significant consequence | reduced Rab10 phosphorylation | sharp decline in neurons undergoing apoptosis
2 | Roc-domain stapled peptide formed from SEQ ID NO. 6 DEKQRKAC(Nle)SKITKEXLNKX, X = (S)-2-(4′-pentenyl)alanine; PEG3 linker, FAM or biotin label (DEKQRKACXSKITKEXLNKX; hydrocarbon staple; Nle; PEG3 linker; FAM or biotin; ROC domain petide; (9)..(9) Xaa is norleucine; (16)..(16) Xaa is (S)-2-(4′-pentenyl)alanine; (20)..(20) Xaa is (S)-2-(4′-pentenyl)alanine) [LRIP4] | dose-dependent uptake | successfully bound to LRRK2; also recorded: pulled down considerably more LRRK2 as compared to LCIP1; also recorded: both peptides bound LRRK2 | LRRK2 maintained its cytoplasmic distribution; also recorded: did not induce mislocalization of LRRK2 | significant reduction of zymosan induced ROS production to an extent comparable to MLi-2 | reduced Rab10 phosphorylation with LRIP4 inducing a more pronounced effect; also recorded: reduced after treatment with LRIP4 or LCIP1, with LRIP4 having a larger inhibitory effect | sharp decline in neurons undergoing apoptosis, especially for LRIP4 treated cells
